Parameters: species or system humans
Conditions: in vivo
Description: The simulation was performed using the software WinNonlin Professional 5.3 (Pharsight Inc., Mountain View, Calif., USA).

Substance	terminal half-life compared with Compound 6	elimination half-life [h]	elimination rate constant [h⁻¹]
A14E, B25H, desB27, B29K(N^ε-(octadecandioyl-γGlu), desB30 human insulin [Compound 4]	almost the same terminal half-life	–	–
A14E, B25H, B29K(N^ε-octadecandioyl-γGlu-OEG-OEG), desB30 human insulin [Compound 6]	–	52	0.013
